Data as given in paper PMC11729874, “How J-chain ensures the assembly of immunoglobulin IgM pentamers” (The EMBO Journal, 2024).
Values belong to the molecule of their own block, whether it stands above or below them.

Experiments:
[1] = molecular target: murine Cμ4tp domain, recombinant (mouse); test: SEC; analytical SE-HPLC, Superdex 200 Increase 10/300, PBS pH 7.4, 25 °C; 1 mg/mL Cµ4tp (DTT removed) and/or 0.5 mg/mL J chain (if not stated otherwise) incubated 24 h at room temperature
[2] = molecular target: the molecule itself; test: nonreducing SDS-PAGE and western blot of covalent assemblies; HEK293/HEK293T co-transfected with H-Cµ234tp and JC variants, 48 h; RIPA lysates with 10 mM NEM and TCA-precipitated supernatants; Halo ligands, anti-JC, anti-µ
[3] = molecular target: the molecule itself; test: cross-linking; disulfide mapping of recombinant JC by cross-linking MS: denatured, alkylated with iodoacetamide, trypsin and Asp-N, HPLC-MS/MS, Kojak with disulfide as crosslinker
[4] = molecular target: murine Cμ4tp domain, recombinant (mouse); test: SEC; analytical SE-HPLC, Superdex 200 Increase 10/300, PBS pH 7.4, 25 °C; 1 mg/mL Cµ4tp (DTT removed) and/or 0.5 mg/mL J chain (if not stated otherwise) incubated 24 h at room temperature; remark: listed apart in the source

stoichiometry N [1]: 2 chains
stoichiometry N (Cµ4tp2 dimers) [1]: 6
Molecule: murine Cμ4tp domain, recombinant (domain or fragment)

B1: Halo-tagged truncated µs variant lacking the variable and first constant domains (H-Cµ234tp) (domain or fragment, UniProt P01872 106-454, looked up)
chain: VAEMNPNVNVFVPPRDGFSGPAPRKSKLICEATNFTPKPITVSWLKDGKLVESGFTTDPVTIENKGSTPQTYKVISTLTISEIDWLNLNVYTCRVDHRGLTFLKNVSSTCAASPSTDILTFTIPPSFADIFLSKSANLTCLVSNLATYETLNISWASQSGEPLETKIKIMESHPNGTFSAKGVASVCVEDWNNRKEFVCTVTHRDLPSPQKKFISKPNEVHKHPPAVYLLPPAREQLNLRESATVTCLVKGFSPADISVQWLQRGQLLPQEKYVTSAPMPEPGAPGFYFTHSILTVTEEEWNSGETYTCVVGHEALPHLVTERTVDKSTGKPTLYNVSLIMSDTGGTCY
notes: secretory Ig µ heavy chain without the variable and first constant domains: Cµ2, Cµ3, Cµ4 and the tailpiece; the gene carries a signal peptide; Detected with anti-mouse IgM (µ chain); also called Halo-Cµ234tp; H-Cµ234tp WT; source: HEK293/HEK293T or HeLa-ERp44KO, transfected, in lysate or supernatant
stoichiometry N [2]: 6 H-Cµ234tp2 subunits (dimers)

stoichiometry N (JC per (Cµ4tp2)5) [4]: 1
B2: murine Joining Chain wild type, recombinant (natural protein, mouse)
chain: MGDDEATILADNKCMCTRVTSRIIPSTEDPNEDIVERNIRIVVPLNNRENISDPTSPLRRNFVYHLSDVCKKCDPVEVELEDQVVTATQSNICNEDDGVPETCYMYDRNKCYTTMVPLRYHGETKMVQAALTPDSCYPD
notes: methionine added at position 1; murine joining chain (J chain), G22-D159 of the precursor; Heterogeneous native and non-native disulfides; largely unstructured by CD; also called JC; J chain
binding result [3]: binds
